Experimental data taken from paper PMC4570195, “Self-sorting heterodimeric coiled coil peptides with defined and tuneable self-assembly properties” (Scientific Reports, 2015).
Cy5 = fluorescent dye, coupled as Cy5-NHS

T1: KV (N-terminal acetylation)
T1 construct: de novo designed 28-residue coiled coil peptide, four heptads (gabcdef); also called KV peptide; source: synthetic peptide (solid phase, Fmoc), purified by reverse phase HPLC
T1 peptide: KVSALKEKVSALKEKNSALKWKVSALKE

T2: EV-Cy5 (Cy5 at the N-terminus (Cy5-NHS used instead of acetic anhydride))
T2 construct: de novo designed 28-residue coiled coil peptide; also called EV modified at the N-terminus with Cy5; source: synthetic peptide (solid phase, Fmoc), purified by reverse phase HPLC
T2 peptide: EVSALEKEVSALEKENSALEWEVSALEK

B1: EV (peptide)
peptide: Ac-EVSALEKEVSALEKENSALEWEVSALEK-NH2
notes: de novo designed 28-residue coiled coil peptide, four heptads (gabcdef); also called EV peptide; source: synthetic peptide (solid phase, Fmoc), purified by reverse phase HPLC
B2: EI (peptide)
peptide: Ac-EIAALEKEIAALEKENAALEWEIAALEK-NH2
notes: de novo designed 28-residue coiled coil peptide, four heptads (gabcdef); also called EI peptide; source: synthetic peptide (solid phase, Fmoc), purified by reverse phase HPLC
B3: KI (peptide)
peptide: Ac-KIAALKEKIAALKEKNAALKWKIAALKE-NH2
notes: de novo designed 28-residue coiled coil peptide, four heptads (gabcdef); also called KI peptide; source: synthetic peptide (solid phase, Fmoc), purified by reverse phase HPLC

Columns and labels:
[1] = biological target: EV-Cy5; assay: Fluorescence of EV-Cy5 upon addition of EI and KI
From the text: To further experimentally verify that the peptides undergo thermodynamic self-sorting we modified EV at the N-terminus with a fluorescent dye (Cy5). Although not considered very environmentally sensitive, cyanine dyes tethered to the terminus of single-stranded DNA display significant changes in fluorescence quantum yield, emission lifetime, and fluorescence anisotropy decay upon hybridization with a complementary DNA strand[34][35]. […] This change in binding partner was also supported by simulations (Fig. 6b). The smaller amount of monomeric EV-Cy5 seen in the experiment after addition of EI is presumably an effect of the kinetics involved in the exchange of partners in the heterodimer. The simulations were run until equilibrium whereas the experimental data was acquired after 30 minutes incubation and the exchange was likely not fully completed within this time frame.
Figure 6 (a) Fluorescence spectra and (b) change in normalized intensity at 667 nm for EV-Cy5 upon addition of EI and KI. Addition of the complimentary peptide KI, thus forming EVKI dimers, results in an increase in fluorescence intensity. Subsequent addition of EI reduces the fluorescence intensity due to formation of EIKI dimers, leaving free EV-Cy5. […]
Fmoc-protected amino acids were purchased from Iris Biotech GmbH. […] Peptide concentrations were determined by UV absorbance (ε280(Trp) = 5690 M^−1 cm^−1). […]

[2] = biological target: B3; assay: circular dichroism, thermal denaturation; Kd at 75 °C, as used for the self-sorting simulations; settings: both partners purified
[3] = biological target: T1, KV; assay: method of continuous variation by circular dichroism; molar ratio of each monomer varied, ellipticity at 222 nm measured; settings: both partners purified
[4] = biological target: B3; assay: as above; settings: both partners purified
[5] = biological target: T1, KV; assay: circular dichroism, thermal denaturation; thermal denaturation at different peptide monomer concentrations, Tm related to Kd; Kd at 20 °C; 10 mM phosphate buffer pH 7; settings: both partners purified
[6] = biological target: B3; assay: as above; settings: both partners purified
[7] = biological target: T1, KV; assay: circular dichroism, thermal denaturation; Kd at 75 °C, as used for the self-sorting simulations; settings: both partners purified
[8] = biological target: T2, EV-Cy5; assay: fluorescence emission intensity of a Cy5-labelled peptide; EV-Cy5 5 μM, KI 5 μM added, then EI 5 μM; 30 minutes incubation; intensity at 667 nm; settings: both partners purified

| Molecule | change in fluorescence emission intensity, EI added prior to KI ([1]; EI added to EV-Cy5 prior to KI, otherwise identical conditions) | change in fluorescence emission intensity ([1]; EV-Cy5 5 μM, KI 5 μM then EI 5 μM, 30 min incubation, 667 nm, PB pH 7) | Kd [2] | stoichiometry N [3] | stoichiometry N [4] | Kd [5] | Kd [6] | Kd [7] | binding result [8] |
| --- | --- | --- | --- | --- | --- | --- | --- | --- | --- |
| EV-Cy5: EV modified at the N-terminus with a fluorescent dye (Cy5) (Cy5-EVSALEKEVSALEKENSALEWEVSALEK-NH2) | a slight decrease in fluorescence intensity | a drop in emission intensity, close to the original intensity of the monomeric EV-Cy5 | – | – | – | – | – | – | – |
| B1 | – | – | > 200 nM | 1 | 1 | 1400 nM | 85 nM | – | – |
| B2 | – | – | – | 1 | 1 | 72 nM | < 0.1 nM | > 200 nM | – |
| B3 | – | – | – | – | – | – | – | – | binds |
